The values that follow are results of earlier work, collected in paper PMC8152036.

Holding throughout (test): SPR
For data set [1], the target named is PfkA (Bacillus subtilis) (UniProt O34529).
Data set [2] deals with RNase Y (Bacillus subtilis) (UniProt O31774).
Data set [3] has as its target RNase J1 (Bacillus subtilis) (UniProt Q45493).
UniProt Q45493, sequence (Q45493 whole entry): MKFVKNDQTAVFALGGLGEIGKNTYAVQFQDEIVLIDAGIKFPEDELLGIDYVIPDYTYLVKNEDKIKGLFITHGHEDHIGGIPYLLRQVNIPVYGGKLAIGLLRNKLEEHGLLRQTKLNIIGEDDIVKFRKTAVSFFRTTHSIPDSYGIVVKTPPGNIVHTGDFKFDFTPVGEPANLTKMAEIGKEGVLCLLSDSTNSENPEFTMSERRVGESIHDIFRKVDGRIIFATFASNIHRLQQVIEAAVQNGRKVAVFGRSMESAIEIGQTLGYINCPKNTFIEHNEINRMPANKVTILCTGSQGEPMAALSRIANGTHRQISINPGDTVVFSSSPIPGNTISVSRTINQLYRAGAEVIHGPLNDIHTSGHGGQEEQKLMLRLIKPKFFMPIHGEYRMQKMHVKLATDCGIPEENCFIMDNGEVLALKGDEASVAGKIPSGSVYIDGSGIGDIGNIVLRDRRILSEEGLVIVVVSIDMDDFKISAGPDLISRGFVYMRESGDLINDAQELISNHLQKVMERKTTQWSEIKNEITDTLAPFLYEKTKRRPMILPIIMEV

UniProt O31774, sequence (O31774 whole entry): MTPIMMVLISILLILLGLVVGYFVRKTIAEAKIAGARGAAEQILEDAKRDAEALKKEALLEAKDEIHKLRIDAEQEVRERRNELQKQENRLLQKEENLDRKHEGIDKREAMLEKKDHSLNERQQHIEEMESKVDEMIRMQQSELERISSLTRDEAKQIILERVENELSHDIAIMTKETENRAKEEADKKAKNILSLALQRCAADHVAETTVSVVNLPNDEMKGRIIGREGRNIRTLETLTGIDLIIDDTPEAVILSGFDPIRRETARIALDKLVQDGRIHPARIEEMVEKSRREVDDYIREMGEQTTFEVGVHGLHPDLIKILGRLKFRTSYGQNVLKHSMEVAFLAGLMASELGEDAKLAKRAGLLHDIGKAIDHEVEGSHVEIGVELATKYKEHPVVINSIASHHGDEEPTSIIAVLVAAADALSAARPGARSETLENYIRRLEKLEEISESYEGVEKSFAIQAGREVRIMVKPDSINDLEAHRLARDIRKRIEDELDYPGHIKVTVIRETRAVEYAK
UniProt O34529, sequence (O34529 whole entry): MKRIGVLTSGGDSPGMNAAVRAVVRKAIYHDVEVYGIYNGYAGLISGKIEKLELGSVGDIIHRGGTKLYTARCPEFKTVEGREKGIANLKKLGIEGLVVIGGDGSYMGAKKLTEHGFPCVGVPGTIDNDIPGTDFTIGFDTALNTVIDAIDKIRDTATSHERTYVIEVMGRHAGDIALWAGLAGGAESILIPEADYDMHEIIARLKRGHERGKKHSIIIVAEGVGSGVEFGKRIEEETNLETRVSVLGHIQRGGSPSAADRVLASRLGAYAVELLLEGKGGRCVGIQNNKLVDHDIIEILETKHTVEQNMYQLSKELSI

Usually Kd stands for the constant that tells how readily two partners part at equilibrium. For the substance Enolase (from UniProt P37869), the Kd in data set [1] is 40 nM; in data set [2], 100 nM.
Take PNPase (from UniProt P50849): the Kd in data set [2] is 5 nM; in data set [3], 250 nM.
